Results reported in the DeepSol protein solubility set.

experiment: soluble on expression in E. coli; label from the status in PepcDB or PDB records

Sequence | soluble on expression in E. coli
MAHHHHHHMFNEAAVPFIQTARDNGLLFGGSDAPAMIDYTSEHGKSYHVRGSIFEVAPHFEVLNGIGYGAYGVVCAAVDLRLVASSVYYNEAMRTIEEEGRIVTRQRRGHDAPVYFRTRAVLDEAGRGGPVRVPHLYSEPFKRRTLARGEVSPFVAIKKVTKVFDDLVDGRRILREIKLLRYLQGHPNIVRLMEVGRPPAPTGASSSAAFDDIYLVTDLMDTDLGALLRSSQEIAMDQLRFIAYQLMKVLVYVHSSGVIHRDLKPGNILLNGNCDMKLCDFGLSRGGVPAWPHERTLTAVATAAESSAKELEDWGLFCWSSSAARGASSAPHAAKQPPLYSLTDYVVTRYYRAPELLIMGRYNHAIDMWSAGCILAEMVLRRPLFTGANYLSQLALILETPGLRGVPQTPEEAAALFEGGEEGKHFINDILFHKTARRRDPLTLSDQVHSQVLFHSTLFGFKVDVPISLGILIAKLLSFDPRKRPTALEALRDPFFWPLYDSRDEILRCPASDPSVAREQIDDIAAYQKAHPCVVVDESPVFTWEFDHRITSAQALRGLFEEECQISRDVQQQLERQQRLRSSPVVKCSERRTLERSLFSGASDGSSGGDGAH | not soluble
MAHHHHHHMFPASGSGPGVAGSALKGFKGMHHKPPNYPYPYVVGVDGAGEVESVGRKVTGLKAGDRVMFHSSLTNAHGGSLCEYAVMEESVAVPIPADGARPFSYEEAAAIPCATWTAYVALFDKLRIEPGRSIFVDGASGAVGSCAVQLAHHMGLYVFASCSPSNADYVRSIGADQVLNYHDGIEMVDQILDATEGYGVDYYLAVTNTQDAESFTDALRFGGAVCLLSGVLIPNSNVLFRRQLSVHYVFLNGLHGHPLTRPQLRYIGDQVAKLYQSGAFRLDVEVLPFAEAAKALDRSATGNVNHKKLIVQVASP | not soluble
MAHHHHHHMFSRHSLWVPAASHFPKFVEHFNRFLKASPHNVELQKALCYKEEETQLLIIQDPKARQPIFAMAFPFTVTSALCDGSRMGLGTFTSLVDTTTSLHVAAALLPTNDMHVSVSLQTNCVQPITAGEKVVMISRMDKFGKRLAFLSARLLRLDDVYENTVAPTAGRELEELERQLSQYQTLANGTHVKCILTGKS | not soluble
MAHHHHHHMFSSHKTPAKAQRDGYDDEQHLVAAVSEFKKVEASNQSMVDQLHQRLASPFQITAKPCEAGRAAVLQCYQQLQSSSAVTTSNAASSTSPAPPPGARSDSKSAKVAPAEAWLSIPYQQCYETALAYHQCVEDTLAKHLALVAAFEQCGTQQKIAHQSAMKAQDKPQ | soluble
MAHHHHHHMGDESNAIGQEALLYDKMFRVMRTVGEMMCDRKYQVADKIIPSSVEEFKDWYTDPREGVIYRDRMTVPCERIGVSQRSRAMVFFSEGLSMETMKRYHTQASEANCDRVIIVVQGRINAIVKRHVEDINRSSLGLKIQLFDEDDLVVNITHHELVPKHTQLEDEEVKEMLQAHALELSALPRILSTDPVAAYLGLERGRVVRIERKSMSAGFYVTYRQVV | not soluble
MAHHHHHHMGGCVVSLMECKARSNEVPWELSEDVKSYGPLSVAVAGTQTPNSSAVYVNGKQSTLAAQQECGKQFYYGPNQPQRFAKLCQENLDSVALAYRRIEKMEKEQVAGASRPMDVAYFSEQCNLTYRELWHAVTGFSRGLAELGLEKRVNVTIYEETRWEWLASIYGIWMQDMVAATVYANLGEGALFHALRETECKAILCNGKSVPNLLRGVGSGAFPACTLIYLDNLPVAGCAELHGCRVVSWKDVVALGHGAGAHHGAAPPEDNESVALIMYTSGTTGDPKGVMHTHGSIVAGILTMDDWLYSVIKHRPDDVYLSYLPMAHIMEFGVVNILLARRAHVAFGTPRTLTDATARPHGDFTHFRPTLLIGVPRIFDTLKKAVEAKLPPVGTLKRQVFDHAYQSRLAALKEGKDTPFWNEKVFSQPRAALGGRVRAFLSGGGPLSETTQEFVNVVFGCIVNGWGLTETVCIGAIQRLGDLTPSAVGQVLCSEQLKLRDIDEYKHTDTPYPRGEICLRGPFLFKGYYKQPELTREVLDEDGWFHTGDVGSIDCEGRVSIVGRIKALAKNCLGEYIALEVLEAVYSSHPLVLHNCVCVLVDPCKNYICALVLTDESHVMRFAKANGIEGEYPSLLEKKELLEKAAASMAETARAARRRDFEVVRRVSLIDDEWSPEKGQLTAALKLRRGAIAKQYEKQITCLFAE | not soluble
MAHHHHHHMGGVRGGRNKSHKLPVKFMAAAKQELVNSRLTLQEELLHSAFDDHSAYRMRITGLKQQNLDLSFTVSELEEQVRDLYTYIHEKRFARQVDEQGNEIAVMTPRPRGVPLALQTELGIDLRHSTANILSELSTLSINMKHQLNSALLRARQLHTLSAWLDEGNETSVSGGGVGGMLERVSEAAAIPVFPVSAWPSIPHFLRTFIAPDVPNYFWTETQAACILYNFFKRYKAIRRRARFVRDNKMLAPRVYQLFEHREVLLTRLDAGKEDVAAAEENTPFGYVVTQFAREVLANLSPQNTQPHLPLVLPGTVALRFPQTSSTPSQSKSLQSGERRG | not soluble
MAHHHHHHMGGVTLHKVNTCPWWQRKNYEIEKSFFLRSAPPPLRKKRNQLRQYNHAENNSYTNIYTIKNPLKCKVVDKVSLVRQNALHEVYNVEIDHGGMFKYLEGHSCGVIPYYEDLIQADDKNNSQEGRKKRGNKFARLYSISSTNAENLSFAIRIHSYQEEENGCMQHKYGYCSGYIKELKKNDNIYITGAHGCFLLPDNVSEKNTNLILIATGTGISPYISFLKKIWGYQPGIHQQKKTYNGQVYLYYGVYYEDSILYLPELKYFQNMYPNNFHVEYVFSSIKNSDGTSHHVQDEIYKKRENFLRLFNELNCELYICGHKSIRAKIMDILKGENPVLDSEKKKRVHVEVY | not soluble
MAHHHHHHMGLMLPKPILSKVVDRAGNSFVNAACASQNGFRNSMEDAHMLVATDDADVAYFGIFDGHSNAECSAYVARELPQRLKKLPESITAEMLEKVCIEVDEAYMKTSTEGGTTGTFCVIRKDLTVTIANVGDSRILVCRGGKLIFATEDHKPYIPGETERIVACGGSVVSNRVDGDLAVSRAFGDASFKVKGTKDYRMQKVIAVPDVSVLQCEPNDFIILACDGVFEGNFSNEDVCQFVWEQQQNCWDDLAVVACRVCDEAIRCGSKDNISCLVVQLAEGASRVKAFGATSFVPGPPFPRNQQPCRAAYAQMAELGHTTTAAALQTRYQLLQAFSKNKLNSQPPVMRTAFEMSDEVDVETEWSFFGKGPAPGNEKNFFEALANTGNSS | soluble
MAHHHHHHMGLVSSKHAGGGDGKPLSLDVISSRPKLEPHEVSLLQLTPHGVYATLAAHVYCAAAPETAMQVPLPDGWEVLLQCSSLHLDKEGYFAVAYVHRGSRHCIISERGTSEVLGLRAGIWMYFEQPTIQFFLAEQFSKAVRHKLKVMDKVCSGSWFVSYTGHSLGAVIAGCRAVMEGTLAVTFESPGARVFIEKTLDASSGTDEHLITYLRAPNPINTLKPQCGYVIMIPTQQVVLPSGTLFLAPSNPAAAEDDDEDERQSPRSGSGNRASRKPSKVPLSSTSSTNPSGCAGLVAASVTTAASTGTTAAATLAARSPTPPSVPASNSNNSGPGAAVASAPARWRIPSFRPQEYLRGYLFGGVGMGVPELQQYVGKVEPMIREMLEHTQQVHSIHSLRSHFQKSDEPGDEEVVLRWPSHLLQFMEFYNTTRALEDPENQDAGVKEAYLGLMRRLYYTEPRRRDCIPTKYLDPRSLLLVRMWWSMDAAQRKQWPLSLMDHKALNVIQIKDRYLCSYVMTAMQAKQYLMRLVARPEMRAMIDQWRRERNDGSTGAGSPQRSKL | not soluble
MAHHHHHHMGQSKTKLQVVMCGLDNSGKTTIINQVKPAQSSSKHITATVGYNVETFEKGRVAFTVFDMGGAKKFRGLWETYYDNIDAVIFVVDSSDHLRLCVVKSEIQAMLKHEDIRRELPGGGRVPFLFFANKMDAAGAKTAAELVEILDLTTLMGDHPFVIFASNALKGTGVHEGFSWLQETASRQSGKAGTKRG | soluble
MAHHHHHHMGTLEAQTQGPGSMLKSVGVILVLSSPSGCGKTTVANKLLEKQKNNIVKSVSVTTRAARKGEKEGKDYYFVDREEFLRLCSNGEIIEHAEVFGNFYGVPRKNLEDNVDKGVSTLLVIDWQGAFKFMEMMREHVVSIFIMPPSMEELRRRLCGRRADDSEVVEARLKGAAFEISHCEAYDYVIVNEDIEETADRISNILRAEQMKTCRQVGLRELLESRFPIED | soluble
MAHHHHHHMGTLEAQTQGPGSMLNKRKFYINGLWDDPSTPHDLYVIDPSTEEACAVISLGSTRDADKAINAAKKAFQTWKTTSPHERLGFVEKILEIYEKRSSDMAKTISMEMGAPIDMALNAQTATGSSHIRNFIKAYKEFSFQEALIEGNEQAILHYDAIGVVGLITPWNWPMNQVTLKVIPALLAGCTMVLKPSEIAPLSAMLFAEILDEAALPSGVFNLINGDGANVGSYLSAHPDLEMISFTGSTRAGKDISKNASNTLKRVCLELGGKGANIIFADADIDALQRGVRHCFYNSGQSCNAPTRMLVEQAIYDKAIKTAKDIAEKTQVGPGHQTGNHIGPVVSKEQYDKIQDLIQSGIDEGATLVTGGTGLPMGMERGYYVRPTVFADVKPHMRIFREEIFGPVLSLLPFNTEDEAVTLANDTEYGLTNYIQSQDRSKCRRIAAQVRSGMVEVNGHELPGGSYFGGVKFSGRAREGGLWGIKEFLDTKAISYW | soluble
MAHHHHHHMGTLEAQTQGPGSMVNWNALRSKAIEVSRHAYAPYSGFPVGAAALVDDGRTVTGCNVENVSYGLGLCAECAVVCALHSGGGGRLVALSCVGPDGGVLMPCGRCRQVLLEHGGPELLIDHAHGPRPLRELLPDAFGPDDLGRR | soluble
MAHHHHHHMGVCLASLMVRRSRISEVPDRYIEERRRYGPVAVACAPPEDDVSSAVYRAAGITDEEHRRICKEWYEGENIVHRLEEICAERSDRRALAYRTVQKVETEKKTDSKGHTRNWEVTYLNDPTYMTYNEFWSRLIAFGKGLRELGLAEGAAVAIAEDVRWEWLASVLAGWTQGLISVTVYANLGEAALLHALKEAECPALICNGNAVKKLVPLLHKAKLNNTMVIYLDALPAGVDAEGMMLLSWTDVLQKGLQSCFSYTIPSDCNRTALIMYTSGTVAEPKGVIHTFGSLKTGAAALEDRLTELLGPKEEGETYLAYLPLAHILEFITEMIMLNRGSLLCYGSPRTLSDMSARPRGDLAEFRPMMFVGVPRIFETIRKNVESQLPPVGSVKRSIFDAAYAARLRAIEDGKDTPF | soluble
MAHHHHHHMHNGVKTFHRVGFVGSKWKEVKNRGIARFIEAFAADTATALNVTPQAVHIADYAVADDIVVDFYVTHPGTDSAEVIDGKLEQFDYQRVWDLYGIPSEVDEQQRVVPCVMKCSNASRRTSPSSTCRLRMPDTNSVSQVDSFCPRCQRRLSSKQEFLQPDESSGWHPQPMHSHTSSISDAVRTALMEDSYSAIRKPSSTPPLPHLAHRYAPHQKWKGKLRSSRARIKRVVYHSCASHR | not soluble
MAHHHHHHMIERTDVVTGTETQEGSTVPQEARQFLQIIATMQSESEERARIIGELRYRKLLVEEERDKNFMEREAVVAKLADARAQLLQLDVEHRELQKRQRSSESEILENSRQSQRCRTLLSTCRGDLTVHPMVPNSASELAAEATAAGTSSAAHNAYTEEAKWLKHLFITYGQLYNGTDFLQELRVSMKNLYVEVSKETHNTVQRNLSDWEATCLQSLPHLTADERTLLHFQLMLHPFV | not soluble
